The record followed here is paper PMC11032491, “A conserved strategy to attack collagen: The activator domain in bacterial collagenases unwinds triple-helical collagen” (Proceedings of the National Academy of Sciences of the …, 2024).

The target in assay [1] is type I gelatin (heat-denatured acid-soluble type I atelocollagen from bovine hides) (bovine) (UniProt P02453). Briefly: ELISA; indirect ELISA; gelatin coated on the plate (5 µg/ml); His-tagged collagenase variant in PBST with 1% BSA, serially diluted 1:3, 140 min at 37 °C; detected with anti-His-HRP; Hill fit; apparent Kd.
Chain of type I gelatin (heat-denatured acid-soluble type I atelocollagen from bovine hides) (bovine) (P02453 23-1217, chain 1 of 2): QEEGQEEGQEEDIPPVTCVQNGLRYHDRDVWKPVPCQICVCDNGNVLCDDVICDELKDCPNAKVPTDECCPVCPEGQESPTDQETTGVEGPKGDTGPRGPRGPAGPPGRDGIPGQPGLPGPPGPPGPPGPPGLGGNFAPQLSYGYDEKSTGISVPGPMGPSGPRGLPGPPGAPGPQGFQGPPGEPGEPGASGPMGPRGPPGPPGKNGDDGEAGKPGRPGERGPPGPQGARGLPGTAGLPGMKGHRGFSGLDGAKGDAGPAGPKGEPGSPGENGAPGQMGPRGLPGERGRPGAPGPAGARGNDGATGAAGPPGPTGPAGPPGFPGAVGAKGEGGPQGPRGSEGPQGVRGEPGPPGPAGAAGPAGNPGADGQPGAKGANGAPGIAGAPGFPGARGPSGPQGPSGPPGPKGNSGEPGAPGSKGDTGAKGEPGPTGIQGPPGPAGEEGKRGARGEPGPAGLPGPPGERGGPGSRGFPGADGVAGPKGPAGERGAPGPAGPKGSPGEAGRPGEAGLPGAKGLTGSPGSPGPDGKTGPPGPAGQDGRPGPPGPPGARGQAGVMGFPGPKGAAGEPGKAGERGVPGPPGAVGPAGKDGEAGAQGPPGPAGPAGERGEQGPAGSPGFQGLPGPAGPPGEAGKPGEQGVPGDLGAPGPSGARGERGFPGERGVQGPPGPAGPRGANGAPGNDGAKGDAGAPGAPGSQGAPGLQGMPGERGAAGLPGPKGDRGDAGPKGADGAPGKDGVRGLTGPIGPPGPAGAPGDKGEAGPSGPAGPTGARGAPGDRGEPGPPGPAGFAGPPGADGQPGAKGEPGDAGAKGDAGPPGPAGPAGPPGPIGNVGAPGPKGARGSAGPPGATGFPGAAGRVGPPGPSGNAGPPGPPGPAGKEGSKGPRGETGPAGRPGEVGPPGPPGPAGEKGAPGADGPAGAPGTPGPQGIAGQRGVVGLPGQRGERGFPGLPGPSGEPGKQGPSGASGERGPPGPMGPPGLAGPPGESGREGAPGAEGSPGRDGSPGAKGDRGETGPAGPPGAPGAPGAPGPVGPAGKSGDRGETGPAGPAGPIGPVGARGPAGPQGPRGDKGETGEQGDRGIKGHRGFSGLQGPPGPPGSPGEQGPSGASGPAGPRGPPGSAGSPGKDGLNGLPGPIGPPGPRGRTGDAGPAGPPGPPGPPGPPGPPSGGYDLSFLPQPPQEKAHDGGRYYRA
Chain of type I gelatin (heat-denatured acid-soluble type I atelocollagen from bovine hides) (bovine) (P02465 80-1117, chain 2 of 2, further chain): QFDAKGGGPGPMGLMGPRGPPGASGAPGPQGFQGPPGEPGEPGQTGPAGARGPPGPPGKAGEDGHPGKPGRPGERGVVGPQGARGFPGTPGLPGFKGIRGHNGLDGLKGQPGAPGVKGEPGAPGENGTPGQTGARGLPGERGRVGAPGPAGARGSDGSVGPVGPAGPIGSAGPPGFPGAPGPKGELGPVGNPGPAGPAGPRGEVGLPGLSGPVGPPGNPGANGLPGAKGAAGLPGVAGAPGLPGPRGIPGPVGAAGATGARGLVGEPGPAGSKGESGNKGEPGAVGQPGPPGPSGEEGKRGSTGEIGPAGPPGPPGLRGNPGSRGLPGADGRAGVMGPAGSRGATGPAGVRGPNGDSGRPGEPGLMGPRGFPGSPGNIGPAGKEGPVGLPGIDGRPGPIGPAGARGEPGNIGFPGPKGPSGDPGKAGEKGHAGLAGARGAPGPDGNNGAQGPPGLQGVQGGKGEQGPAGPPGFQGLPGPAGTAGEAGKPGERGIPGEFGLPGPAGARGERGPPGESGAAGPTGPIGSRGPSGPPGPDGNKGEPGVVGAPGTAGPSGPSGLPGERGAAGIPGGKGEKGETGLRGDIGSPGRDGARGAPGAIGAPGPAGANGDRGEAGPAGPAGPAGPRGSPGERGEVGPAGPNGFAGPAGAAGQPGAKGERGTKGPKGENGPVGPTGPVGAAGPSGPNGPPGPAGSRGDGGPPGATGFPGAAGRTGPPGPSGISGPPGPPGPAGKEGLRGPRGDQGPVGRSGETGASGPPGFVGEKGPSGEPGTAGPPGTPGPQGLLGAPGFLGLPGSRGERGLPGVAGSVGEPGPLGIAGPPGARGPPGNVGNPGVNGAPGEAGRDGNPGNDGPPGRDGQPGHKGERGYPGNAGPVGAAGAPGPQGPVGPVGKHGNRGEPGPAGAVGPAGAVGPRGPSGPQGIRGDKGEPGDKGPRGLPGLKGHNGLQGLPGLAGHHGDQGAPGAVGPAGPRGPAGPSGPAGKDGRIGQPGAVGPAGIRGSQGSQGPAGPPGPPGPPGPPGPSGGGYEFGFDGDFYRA
Assay [2] deals with soluble type I collagen (acid-soluble type I atelocollagen from bovine hides) (bovine) (UniProt P02453). Kind of assay: ELISA; indirect ELISA; soluble type I collagen coated on the plate (5 µg/ml); His-tagged collagenase variant in PBST with 1% BSA, serially diluted 1:3, 140 min at room temperature (25 °C); detected with anti-His-HRP; Hill fit; apparent Kd.
Chain of soluble type I collagen (acid-soluble type I atelocollagen from bovine hides) (bovine) (P02453 162-1217, chain 1 of 2): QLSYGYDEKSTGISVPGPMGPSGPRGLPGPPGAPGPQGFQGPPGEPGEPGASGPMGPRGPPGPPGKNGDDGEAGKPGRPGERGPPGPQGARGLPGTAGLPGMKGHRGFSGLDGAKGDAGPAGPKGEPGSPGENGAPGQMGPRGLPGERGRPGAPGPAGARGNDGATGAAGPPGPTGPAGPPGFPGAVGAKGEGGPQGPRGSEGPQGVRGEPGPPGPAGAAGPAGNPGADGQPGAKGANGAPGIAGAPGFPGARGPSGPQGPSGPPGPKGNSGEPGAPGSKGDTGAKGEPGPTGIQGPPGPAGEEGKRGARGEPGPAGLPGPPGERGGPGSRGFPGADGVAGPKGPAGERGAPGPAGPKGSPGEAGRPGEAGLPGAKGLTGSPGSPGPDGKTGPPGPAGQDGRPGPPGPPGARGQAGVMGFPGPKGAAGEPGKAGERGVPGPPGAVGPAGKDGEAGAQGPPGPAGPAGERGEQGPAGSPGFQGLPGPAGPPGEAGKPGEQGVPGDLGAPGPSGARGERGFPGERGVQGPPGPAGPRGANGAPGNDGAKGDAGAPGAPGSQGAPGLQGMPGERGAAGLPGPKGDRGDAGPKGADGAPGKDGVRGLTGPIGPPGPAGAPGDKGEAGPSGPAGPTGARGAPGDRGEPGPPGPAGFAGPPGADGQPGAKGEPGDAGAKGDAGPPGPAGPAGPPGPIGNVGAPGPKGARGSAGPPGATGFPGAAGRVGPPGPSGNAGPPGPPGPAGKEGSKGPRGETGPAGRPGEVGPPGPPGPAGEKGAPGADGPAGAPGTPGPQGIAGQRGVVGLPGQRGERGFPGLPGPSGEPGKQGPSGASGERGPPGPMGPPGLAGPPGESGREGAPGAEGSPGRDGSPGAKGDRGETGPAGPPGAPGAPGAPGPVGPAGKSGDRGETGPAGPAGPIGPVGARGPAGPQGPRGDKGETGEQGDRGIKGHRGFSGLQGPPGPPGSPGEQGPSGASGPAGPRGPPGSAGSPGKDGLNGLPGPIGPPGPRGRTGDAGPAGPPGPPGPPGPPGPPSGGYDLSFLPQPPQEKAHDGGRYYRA
Chain of soluble type I collagen (acid-soluble type I atelocollagen from bovine hides) (bovine) (P02465 80-1117, chain 2 of 2, further chain): as the sequence (P02465 80-1117, chain 2 of 2, further chain) above

“ColQ1-CU G472V Y321A (control mutant) (from UniProt B9J3S4 94-965) (domain or fragment)”: the Kd in assay [1] was 2.5 µM; in assay [2] it was 4 µM. The like results for “ColQ1-CU G472V Y270A (from UniProt B9J3S4 94-965) (domain or fragment)” were, in that order, 4.2 µM and 0.19 µM. As to “ColQ1-CU G472V F176A (from UniProt B9J3S4 94-965) (domain or fragment)”, the Kd in assay [1] was found to be 1.2 µM; in assay [2], 0.08 µM.

With “ColQ1-CU G472V N317A (control mutant) (from UniProt B9J3S4 94-965) (domain or fragment)”, the Kd in assay [1] is 2.3 µM; in assay [2], 2.8 µM. On to “ColQ1-CU G472V E166A (from UniProt B9J3S4 94-965) (domain or fragment)”, for which, in assay [1], the Kd is 5 µM. For the substance “ColQ1-CU G472V R169A (from UniProt B9J3S4 94-965) (domain or fragment)”, the Kd in assay [1] came to 2.8 µM; in assay [2], 0.17 µM.

As for “ColQ1-CU G472V F123A (from UniProt B9J3S4 94-965) (domain or fragment)”, the Kd in assay [1] came to 1.6 µM.

Take “ColQ1-CU G472V Y251A (control mutant) (from UniProt B9J3S4 94-965) (domain or fragment)”: the Kd was found to be 2.5 µM in assay [1] and 2.8 µM in assay [2].

On to “ColQ1-CU G472V Y173A (from UniProt B9J3S4 94-965) (domain or fragment)”, for which, in assay [1], the Kd was 24 µM.
